The values that follow come from patent US20230049152A1.

Where only a bound is given, the exact number is not on record here.

This assay deals with human CCR8 (human) (UniProt P51685). Put plainly: cell-based or functional assay.

B1: murine anti-human CCR8 mAb 433H (BD Biosciences) (antibody, from another filing, mouse IgG2a, V domains shown)
VH: EVQLVETGGGLVQPKGSLRLSCAASGFPFNTFAMNWVRQAPGKGLEWLARIRSKSNNYATYYADSVKDRFTISRDDSRRMLYLLMNNVKFEDTAIYYCVRGKENNYGYAMDYWGQGTSVTVSS
VL: DIVMTQAAPSVPVTPGESVSISCRSSQSLLHSNGNTYLYWFLQRPGQSPQLLIYRMSNLASGVPDRFSGSGSGTAFTLRISRVEAEDVGVYYCMQHLEYPFTFGIGTKLELKR
Consider B1, for which the ADCC reporter EC50, mFcgRIV Jurkat cells with CHO/hCCR8 (FIG. 11D) was determined as 0.26 nM; the CCL1 blocking potency IC50, Ca2+ influx was determined as 17.6 nM; the induction fold at about 1 nM antibody, mFcgRIV Jurkat NFAT-luciferase reporter is greater than 12 fold; the induction fold plateau at about 40 nM antibody, mFcgRIV Jurkat NFAT-luciferase reporter amounted to 13 fold.
